B1: 44 (protein)
chain: LDNGLARTPTMGWLHWERFMCNLDCQEEPDSCISEKLFMEMAELMVSEGWKDAGYEYLCIDDCWMAPQRDSEGRLQADPQRFPHGIRQLANYVHSKGLKLGIYADVGNKTCAGFPGSFGYYDIDAQTFADWGVDLLKFDGCYCDSLENLADGYKHMSLALNRTGRSIVYSCEWPLYMWPFQKPNYTEIRQYCNHWRNFADIDDSWKSIKSILDWTSFNQERIVDVAGPGGWNDPDMLVIGNFGLSWNQQVTQMALWAIMAAPLFMSNDLRHISPQAKALLQDKDVIAINQDPLGKQGYQLRQGDNFEVWERPLSGLAWAVAMINRQEIGGPRSYTIAVASLGKGVACNPACFITQLLPVKRKLGFYEWTSRLRSHINPTGTVLLQLKNTMQMSKDLLL
modifications: Synthetic Polypeptide sequence of Variant No. 44 of mature Human GLA
B2: 47 (protein)
chain: LDNGLARTPTMGWLHWERFMCNLDCQEEPDSCISEKLFMEMAELMVSEGWKDAGYEYLCIDDCWMAPQRDSEGRLQADPQRFPHGIRQLANYVHSKGLKLGIYADVGNKTCAGFPGSFGYYDIDAQTFADWGVDLLKFDGCYCDSLENLADGYKHMSLALNRTGRSIVYSCEWPLYMWPFQKPNYTEIRQYCNHWRNFADIDDSWKSIKSILDWTSFNQERIVDVAGPGGWNDPDMLVIGNFGLSWNQQVTQMALWAIMAAPLFMSNDLRHISPQAKALLQDKDVIAINQDPLGKQGYQLRQGDNFEVWERPLSGLAWAVAMINRQEIGGPRSYTIAVASLGKGVACNPACFITQLLPVKRKLGFYEWTSRLRSHINPTGTVLLQLTNTMQMSKDLLL
modifications: Synthetic Polypeptide sequence of Variant No. 47 of mature Human GLA
B3: 50 (protein)
chain: LDNGLARTPTMGWLHWERFMCNLDCQEEPDSCISEKLFMEMAELMVSEGWKDAGYEYLCIDDCWMAPQRDSEGRLQADPQRFPHGIRQLANYVHSKGLKLGIYADVGNKTCAGFPGSFGYYDIDAQTFADWGVDLLKFDGCYCDSLENLADGYKHMSLALNRTGRSIVYSCEWPLYMWPSQKPNYTEIRQYCNHWRNFADIDDSWKSIKSILDWTSFNQERIVDVAGPGGWNDPDMLVIGNFGLSWNQQVTQMALWAIMAAPLFMSNDLRHISPQAKALLQDKDVIAINQDPLGKQGYQLRQGDNFEVWERPLSGLAWAVAMINRQEIGGPRSYTIAVASLGKGVACNPACFITQLLPVKRKLGFYEWTSRLRSHINPTGTVLLQLENTMQMSKDLLL
modifications: Synthetic Polypeptide sequence of Variant No. 50 of mature Human GLA
B4: 46 (protein)
chain: LDNGLARTPTMGWLHWERFMCNLDCQEEPDSCISEKLFMEMAELMVSEGWKDAGYEYLCIDDCWMAPQRDSEGRLQADPQRFPHGIRQLANYVHSKGLKLGIYADVGNKTCAGFPGSFGYYDIDAQTFADWGVDLLKFDGCYCDSLENLADGYKHMSLALNRTGRSIVYSCEWPLYMWPFQKPNYTEIRQYCNHWRNFADIDDSWKSIKSILDWTSFNQERIVDVAGPGGWNDPDMLVIGNFGLSWNQQVTQMALWAIMAAPLFMSNDLRHISPQAKALLQDKDVIAINQDPLGKQGYQLRQGDNFEVWERPLSGLAWAVAMINRQEIGGPRSYTIAVASLGKGVACNPACFITQLLPVKRKLGFYEWTSRLRSHINPTGTVLLQLRNTMQMSKDLLL
modifications: Synthetic Polypeptide sequence of Variant No. 46 of mature Human GLA
B5: 51 (protein)
chain: LDNGLARTPTMGWLHWERFMCNLDCQEEPDSCISEKLFMEMAELMVSEGWKDAGYEYLCIDDCWMAPQRDSEGRLQADPQRFPHGIRQLANYVHSKGLKLGIYADVGNKTCAGFPGSFGYYDIDAQTFADWGVDLLKFDGCYCDSLENLADGYKHMSLALNRTGRSIVYSCEWPLYMWPFQKPNYTEIRQYCNHWRNSADIDDSWKSIKSILDWTSFNQERIVDVAGPGGWNDPDMLVIGNFGLSWNQQVTQMALWAIMAAPLFMSNDLRHISPQAKALLQDKDVIAINQDPLGKQGYQLRQGDNFEVWERPLSGLAWAVAMINRQEIGGPRSYTIAVASLGKGVACNPACFITQLLPVKRKLGFYEWTSRLRSHINPTGTVLLQLENTMQMSKDLLL
modifications: Synthetic Polypeptide sequence of Variant No. 51 of mature Human GLA
B6: 49 (protein)
chain: LDNGLARTPTMGWLHWERFMCNLDCQEEPDSCISEKLFMEMAELMVSEGWKDAGYEYLCIDDCWMAPQRDSEGRLQADPQRFPHGIRQLANYVHSKGLKLGIYADVGNKTCAGFPGSFGYYDIDAQTFADWGVDLLKFDGCYCDSLENLADGYKHMSLALNRTGRSIVYSCEWPLYMWPRQKPNYTEIRQYCNHWRNFADIDDSWKSIKSILDWTSFNQERIVDVAGPGGWNDPDMLVIGNFGLSWNQQVTQMALWAIMAAPLFMSNDLRHISPQAKALLQDKDVIAINQDPLGKQGYQLRQGDNFEVWERPLSGLAWAVAMINRQEIGGPRSYTIAVASLGKGVACNPACFITQLLPVKRKLGFYEWTSRLRSHINPTGTVLLQLENTMQMSKDLLL
modifications: Synthetic Polypeptide sequence of Variant No. 49 of mature Human GLA
B7: 48 (protein)
chain: LDNGLARTPTMGWLHWERFMCNLDCQEEPDSCISEKLFMDMAELMVSEGWKDAGYEYLCIDDCWMAPQRDSEGRLQADPQRFPHGIRQLANYVHSKGLKLGIYADVGNKTCAGFPGSFGYYDIDAQTFADWGVDLLKFDGCYCDSLENLADGYKHMSLALNRTGRSIVYSCEWPLYMWPFQKPNYTEIRQYCNHWRNFADIDDSWKSIKSILDWTSFNQERIVDVAGPGGWNDPDMLVIGNFGLSWNQQVTQMALWAIMAAPLFMSNDLRHISPQAKALLQDKDVIAINQDPLGKQGYQLRQGDNFEVWERPLSGLAWAVAMINRQEIGGPRSYTIAVASLGKGVACNPACFITQLLPVKRKLGFYEWTSRLRSHINPTGTVLLQLENTMQMSKDLLL
modifications: Synthetic Polypeptide sequence of Variant No. 48 of mature Human GLA
B8: 45 (protein)
chain: LDNGLARTPTMGWLHWERFMCNLDCQEEPDSCISEKLFMEMAELMVSEGWKDAGYEYLCIDDCWMAPQRDSEGRLQADPQRFPHGIRQLANYVHSKGLKLGIYADVGNKTCAGFPGSFGYYDIDAQTFADWGVDLLKFDGCYCDSLENLADGYKHMSLALNRTGRSIVYSCEWPLYMWPFQKPNYTEIRQYCNHWRNFADIDDSWKSIKSILDWTSFNQERIVDVAGPGGWNDPDMLVIGNFGLSWNQQVTQMALWAIMAAPLFMSNDLRHISPQAKALLQDKDVIAINQDPLGKQGYQLRQGDNFEVWERPLSGLAWAVAMINRQEIGGPRSYTIAVASLGKGVACNPACFITQLLPVKRKLGFYEWTSRLRSHINPTGTVLLQLQNTMQMSKDLLL
modifications: Synthetic Polypeptide sequence of Variant No. 45 of mature Human GLA

Columns and labels:
Type in all cases: biochemical
[1] = HTP-analysis of yeast culture supernatants, no challenge (MUGal hydrolysis); conditions: activity of the variant/activity of WT GLA (SEQ ID NO: 5), yeast supernatant
Outline: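 GLA variants expressed in yeast INVSc1, secreted into SD-Ura broth over 66-84 h at 30° C; clarified supernatants tested without challenge. Supernatant mixed with McIlvaine buffer pH 4.8 and 2 mM MUGal (citrate/KCl, pH 4.6), 37° C for 30-180 min, carbonate-quenched, fluorescence Ex 355/Em 448 nm.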

[2] = HTP-analysis of supernatants pretreated with acid (MUGal hydrolysis); conditions: challenge at pH 4.2; activity of the variant/activity of WT GLA (SEQ ID NO: 5); yeast supernatant
Outline: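 Supernatants from INVSc1 yeast secreting GLA variants were challenged at 37° C. for 1-3 h in McIlvaine buffer at pH 3.3-4.3. Residual activity was then measured on 4 mM MUGal substrate stock at pH 4.8 with citrate buffer pH 4.3, over 30-180 min at 37° C. Reactions were quenched with sodium carbonate and read by fluorescence (Ex 355/Em 448 nm).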

[3] = HTP-analysis of supernatants pretreated with base (MUGal hydrolysis); conditions: challenge at pH 7.1; activity of the variant/activity of WT GLA (SEQ ID NO: 5); yeast supernatant
Outline: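 GLA variants secreted from yeast INVSc1; culture supernatants pre-incubated with McIlvaine buffer pH 7.0–8.2 or 200 mM bicarbonate pH 9.1–9.7 at 37° C. for 1–18 h. Residual activity: MUGal (4 mM stock) hydrolysis at pH 4.3–4.8, 37° C., 30–180 min, carbonate quench; fluorescence Ex 355/Em 448 nm.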

Molecule | Relative Activity of GLA Variants After No Challenge (NC) [1] | Relative Activity of GLA Variants After Challenge at pH 4.2 [2] | Relative Activity of GLA Variants After Challenge at pH 7.1 [3]
B1 | + (+ = 0.5 to 1.5 relative activity over WT GLA (SEQ ID NO: 5)) | ++ (++ = >1.5 to 2.5 relative activity over WT GLA (SEQ ID NO: 5)) | + (+ = 0.5 to 1.5 relative activity over WT GLA (SEQ ID NO: 5))
B2 | + (+ = 0.5 to 1.5 relative activity over WT GLA (SEQ ID NO: 5)) | ++ (++ = >1.5 to 2.5 relative activity over WT GLA (SEQ ID NO: 5)) | + (+ = 0.5 to 1.5 relative activity over WT GLA (SEQ ID NO: 5))
B3 | ++ (++ = >1.5 to 2.5 relative activity over WT GLA (SEQ ID NO: 5)) | ++ (++ = >1.5 to 2.5 relative activity over WT GLA (SEQ ID NO: 5)) | ++ (++ = >1.5 to 2.5 relative activity over WT GLA (SEQ ID NO: 5))
B4 | + (+ = 0.5 to 1.5 relative activity over WT GLA (SEQ ID NO: 5)) | +++ (+++ = >2.5 relative activity over WT GLA (SEQ ID NO: 5)) | + (+ = 0.5 to 1.5 relative activity over WT GLA (SEQ ID NO: 5))
B5 | ++ (++ = >1.5 to 2.5 relative activity over WT GLA (SEQ ID NO: 5)) | ++ (++ = >1.5 to 2.5 relative activity over WT GLA (SEQ ID NO: 5)) | + (+ = 0.5 to 1.5 relative activity over WT GLA (SEQ ID NO: 5))
B6 | + (+ = 0.5 to 1.5 relative activity over WT GLA (SEQ ID NO: 5)) | + (+ = 0.5 to 1.5 relative activity over WT GLA (SEQ ID NO: 5)) | + (+ = 0.5 to 1.5 relative activity over WT GLA (SEQ ID NO: 5))
B7 | + (+ = 0.5 to 1.5 relative activity over WT GLA (SEQ ID NO: 5)) | + (+ = 0.5 to 1.5 relative activity over WT GLA (SEQ ID NO: 5)) | + (+ = 0.5 to 1.5 relative activity over WT GLA (SEQ ID NO: 5))
B8 | ++ (++ = >1.5 to 2.5 relative activity over WT GLA (SEQ ID NO: 5)) | ++ (++ = >1.5 to 2.5 relative activity over WT GLA (SEQ ID NO: 5)) | ++ (++ = >1.5 to 2.5 relative activity over WT GLA (SEQ ID NO: 5))
